This series deals with the molecule itself. The experiment in a line: SDS-PAGE and immunoblot of dimer bands in subcellular fractions.

In general, stoichiometry N refers to a count of units in the complex or per binding partner.

B1: metabotropic glutamate receptor 1 splice variant mGluR1b (endogenous, rat brain) (receptor, rat (endogenous in rat brain), UniProt P23385-2 19-906, looked up)
chain: LPRMPDRKVLLAGASSQRSVARMDGDVIIGALFSVHHQPPAEKVPERKCGEIREQYGIQRVEAMFHTLDKINADPVLLPNITLGSEIRDSCWHSSVALEQSIEFIRDSLISIRDEKDGLNRCLPDGQTLPPGRTKKPIAGVIGPGSSSVAIQVQNLLQLFDIPQIAYSATSIDLSDKTLYKYFLRVVPSDTLQARAMLDIVKRYNWTYVSAVHTEGNYGESGMDAFKELAAQEGLCIAHSDKIYSNAGEKSFDRLLRKLRERLPKARVVVCFCEGMTVRGLLSAMRRLGVVGEFSLIGSDGWADRDEVIEGYEVEANGGITIKLQSPEVRSFDDYFLKLRLDTNTRNPWFPEFWQHRFQCRLPGHLLENPNFKKVCTGNESLEENYVQDSKMGFVINAIYAMAHGLQNMHHALCPGHVGLCDAMKPIDGRKLLDFLIKSSFVGVSGEEVWFDEKGDAPGRYDIMNLQYTEANRYDYVHVGTWHEGVLNIDDYKIQMNKSGMVRSVCSEPCLKGQIKVIRKGEVSCCWICTACKENEFVQDEFTCRACDLGWWPNAELTGCEPIPVRYLEWSDIESIIAIAFSCLGILVTLFVTLIFVLYRDTPVVKSSSRELCYIILAGIFLGYVCPFTLIAKPTTTSCYLQRLLVGLSSAMCYSALVTKTNRIARILAGSKKKICTRKPRFMSAWAQVIIASILISVQLTLVVTLIIMEPPMPILSYPSIKEVYLICNTSNLGVVAPVGYNGLLIMSCTYYAFKTRNVPANFNEAKYIAFTMYTTCIIWLAFVPIYFGSNYKIITTCFAVSLSVTVALGCMFTPKMYIIIAKPERNVRSAFTTSDVVRMHVGDGKLPCRSNTFLNIFRRKKPGAGNAKKRQPEFSPSSQCPSAHAQL
Regarding B1, the “stoichiometry N” value turned out to be 2.

For the origin of these results see publication PMC4188797 (Neuropharmacology, 2014).
